The source of these data is publication PMC8924901 (Journal of molecular biology, 2021).

The assay deals with T1, rat PLCγ1 isolated cSH2 domain (H663-E759) (rat, UniProt P10686 663-759).
T1 sequence (looked up): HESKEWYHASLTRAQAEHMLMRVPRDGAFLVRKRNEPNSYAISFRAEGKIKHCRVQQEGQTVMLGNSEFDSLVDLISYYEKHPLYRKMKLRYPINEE
The experiment in a line: NMR titration.

B1: rat PLCγ1 isolated split PH (sPH) domain (D485-N529/N865-R936 with a C-terminal 6X-His tag) (domain or fragment, UniProt P10686 485-529, looked up)
chain: DISNSIKNGILYLEDPVNHEWYPHYFVLTSSKIYYSEETSSDQGNNSPLGDLLRGVLDVPACQIAIRPEGKNNRLFVFSISMPSVAQWSLDVAADSQEELQDWVKKIREVAQTADAR
Consider B1, for which the binding result is recorded as “binds”.
